This note sets out measurements from the nanobody polyreactivity screen of Harvey et al. (2022).

The nature of the data set: yeast display, Sf9 membrane polyspecificity reagent, FACS + sequencing; frameworks hold sequencing errors. Summed up: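 Galactose induction of a Saccharomyces cerevisiae BJ5465 synthetic nanobody display library ran 36–48 hours. The cells were then stained for 1 hour at 4 °C with 10% biotinylated, detergent-solubilized Sf9 membrane reagent, pulled down on streptavidin microbeads and FACS-sorted into low and high (top ~1%) gates on expression and reagent-binding fluorescence. Labels for polyreactivity follow the gate of origin.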
For the sequence “QVQHVESGGGLVQAGGSLRLSCAASGFILPWYVMGWYRQAPGKERELVAAISGTGGSTYYADSVKGRFTISRDNAKNTVYLQMNSLKPEDTAVYYCAAGAFYAGYYWEFYYWGQGTQVTVSS”, the “polyreactivity (PSR sort gate)” value is reported as “high polyreactivity”.

Regarding “QVQHVESGGGLVQAGGSLRLSCAASGFTFYRYTMGWYRQAPGKERELVAAISRGGRTYYADSVKGRFTISRDNAKNTVYLQMNSLKPEDTAVYYCAARTWIARRGRYNYWGQGTQVTVSS”, the “polyreactivity (PSR sort gate)” value was “high polyreactivity”.

For the sequence “QVQHVESGGGLVQAGGSLRLSCAASGFTSWKYAMGWYRQAPGKERELVAAISQSGGRTYADSVKGRFTISRDNAKNTVYLQMNSLKPEDTAVYYCAARYPRRSQKYQYWGQGTQVTVSS”, the “polyreactivity (PSR sort gate)” value is “high polyreactivity”.

For the sequence “QVQHVESGGGLVQAGGSLRLSCAASGFTYRRYAMGWYRQSPGKERELVAAISYRGGTYYADSVKGRFTISRDKAKNTLYLQMTSLIPEDTAVYYCNARYRGKYSSYGYWGQGTQVTVSS”, the “polyreactivity (PSR sort gate)” value is on record as “high polyreactivity”.

As to “QVQHVESGGGLVQAGGSLRLSCAASGGIFHGYAMGWYRQAPGKERELVAAISRGGSTNYADSVKGRFTISRDNAKNTVYLQMNSLKPQDTAVYYCAARTRWFKGYDYWGQGTQVTVSS”, the “polyreactivity (PSR sort gate)” value was “high polyreactivity”.

As for “QVQHVESGGGLVQAGGSLRLSCAASGGTFSYNTMGWSRQAPGKERELVAVITFSGGSTYYADSVKGRFTISRDNAKNTVYLQMNSLKPEDTAVYYCNARSYPRWLRYDYWGQGTQVTVSS”, the “polyreactivity (PSR sort gate)” value is “low polyreactivity”.

As for “QVQHVESGGGLVQAGGSLRLSCAASGIIFHSYAMGWYRQAPGKERELVAAISKNVVSTYYADSVKGRFTISRDNAKNTVYLQMNSLKPEDTAVYYCATLKPYRARQRDYWGQGTQVTVSS”, the “polyreactivity (PSR sort gate)” value is “high polyreactivity”.

Take “QVQHVESGGGLVQAGGSLRLSCAASGITFFFNAIGWYRQATGKQRQLVAAITSRGGRTYYADSVKGRFTISRDNAKYTVYLQMNSLKPEDTAVYYCAATKKTGYYRYYYWGQGTQVTVSS”: the “polyreactivity (PSR sort gate)” value is on record as “high polyreactivity”.

On to “QVQHVESGGGLVQAGGSLRLSCAASGITFGDNDMGWYRQAPGKERELVASISSGGSTTYADSVKGRFTISRDNAKNTVYLQMNSLKPEDTAVYYCNADYGSSVEYNYWGQGTKVTVSS”, for which the “polyreactivity (PSR sort gate)” value is listed as “low polyreactivity”.

Regarding “QVQHVESGGGLVQAGGSLRLSCAASGLIFSWYAKGWYRQAPGKERELDASITIGGNTNYAYSVKGRFTISRDNAKNTVYLQMNSLKPEDTAVYYCDAQTFWYGYGGGDYWGQGTQVTVSS”, the “polyreactivity (PSR sort gate)” value was “low polyreactivity”.

As to “QVQHVESGGGLVQAGGSLRLSCAASGLIFTKNAMGWCRQARGKEWELVAAISRGGGTPYYADSVKGRFTISRDHAKNTVYLQMNSLKPEDTAVYYCAAESYLQYPGAGDSWGQGTQVTVSS”, the “polyreactivity (PSR sort gate)” value was “high polyreactivity”.

In the case of “QVQHVESGGGLVQAGGSLRLSCAASGLTFAGYTMGWYRQAPGKERELVAAITRGGGRTYYADSVKGRFTISRDNAKNTVYLQMNSLKPEDTAVYYCATVSQYRGYYWGQGTQVTVSS”, the “polyreactivity (PSR sort gate)” value is reported as “high polyreactivity”.

In the case of “QVQHVESGGGLVQAGGSLRLSCAASGRIFDLNAMGWYRQATGKERELVAAISYSGGRTFSADSVKRRFTISRDNAKNTVYLQMNSLKPEDTAVYYCAAVAYLNWTPHYYWGQGTQVTVSS”, the “polyreactivity (PSR sort gate)” value is “low polyreactivity”.

Consider “QVQHVESGGGLVQAGGSLRLSCAASGRIFDLYAMGWYRQAPGKERELVAAITSGSTYYADSVKGRFTISRDNAKNTVYLQMNSLKPEDTAVYYCAADLSYWRGGHSRNYWGQGTQVTVSS”, for which the “polyreactivity (PSR sort gate)” value is recorded as “low polyreactivity”.

With “QVQHVESGGGLVQAGGSLRLSCAASGRIFDSYAMGWYRQAPGKERELVATISWDSASTYYADTVKGRFTISRDNAKNTVYLQMNCLNPEDTAVYYCAAGGSSSWAFNYWGQGTQVTVSS”, the “polyreactivity (PSR sort gate)” value was “low polyreactivity”.

“QVQHVESGGGLVQAGGSLRLSCAASGRIFGRNNMGWYRQAPGKERELVAAISSSGGSTRYADSVKGRFTISRDNAKNTVYLQMNSLKPEDTGVYYCAARRAYYYEGGYDYWGQGTQVTVSS”: the “polyreactivity (PSR sort gate)” value is recorded as “high polyreactivity”.

On to “QVQHVESGGGLVQAGGSLRLSCAASGRIFGSNAMGWYRQPPGKDRELVAAITWSGGSTYYADSVKGRFTISRDNAKNTVYLQMNSLKPEDTAVYDCAAPASRTKGPFPGYDYWGQGTQVTVSS”, for which the “polyreactivity (PSR sort gate)” value is on record as “high polyreactivity”.

As to “QVQHVESGGGLVQAGGSLRLSCAASGRIFGSYAMVGYIQAPGKETELDAAIRWSGGNTYYADSVKGRFTITRDNAKNTVYFQMNSLKPEDTAVYYCNARTARSYSKTSYRFSSYNYWGQGTQVTVSS”, the “polyreactivity (PSR sort gate)” value was “high polyreactivity”.

“QVQHVESGGGLVQAGGSLRLSCAASGRIFRFNAMGWYRKAPGKERELVAAISWRSSNTYYADSVKGRFTISRDNAKNSVYLQMNSLKPEDTAVYYCAASTASSKYRYEYWGQGTQVTVSS”: the “polyreactivity (PSR sort gate)” value was “high polyreactivity”.

Turning to “QVQHVESGGGLVQAGGSLRLSCAASGRIFSANAMGWYRQAPGKERELVAAISGSGGSTFYADSVKGRFTISRDNAKNTVYLQMNSLKPEDTAVYYCAARRYRSGYYSFYYWGQGTQVTVSS”, the “polyreactivity (PSR sort gate)” value is “high polyreactivity”.

For “QVQHVESGGGLVQAGGSLRLSCAASGRIFSYYAMGWYRQAPGKERELVAVISRRGDNTYYADSVKGRFTISRDNAKKTVYLQMNSLKPEDTAVYYCAARFGYLTFYSSGYYWGQGTQVTVSS”, the “polyreactivity (PSR sort gate)” value was “high polyreactivity”.

Consider “QVQHVESGGGLVQAGGSLRLSCAASGRIFYGNAMGWYRQAPGKERELVAGITRSSGTSTDYADSVKGRFTISRDNAKNSVYLQMNSMKPEDCAVYYCAAPPDSYYFYKVPVVPYDYWGQGTQVTVSS”, for which the “polyreactivity (PSR sort gate)” value is “low polyreactivity”.

On to “QVQHVESGGGLVQAGGSLRLSCAASGRTFAHYAMGWYRQAPGKERELVAAISWGGTRTYYADSVKGRFTISRDNAKNTVYLQMNSLKPEDTAVYYCAADYGYQDDYWGQGTQVTVSS”, for which the “polyreactivity (PSR sort gate)” value is on record as “low polyreactivity”.

Turning to “QVQHVESGGGLVQAGGSLRLSCAASGRTFGLNAMGWYRQAPGKERELVAAISGSGGRTYYADSVKGRFTISRDNAKNTVYLQMNSLKPEDTAVYYCARVPSGQLEYDYWGQGTQVTVSS”, the “polyreactivity (PSR sort gate)” value is “high polyreactivity”.

For the sequence “QVQHVESGGGLVQAGGSLRLSCAASGRTFGWYTMGWYRQAPGKEREFVAAISSSDTSTYYADSVKGRFTISRDNAKNTVYLQMNSLKPEDTAVYYCAADPPSWQWFVGYSYDYWGQGTQVTVSS”, the “polyreactivity (PSR sort gate)” value is reported as “low polyreactivity”.

For “QVQHVESGGGLVQAGGSLRLSCAASGRTFTFNAMGWYRPAPGKERELVARIDWRGITYADSVKGRFTISRDNAKNTVYLQMNSLKPEDTAVYDCAAVWLHISYYGKYDYWGQGTQVTVSS”, the “polyreactivity (PSR sort gate)” value is given as “low polyreactivity”.

Regarding “QVQHVESGGGLVQAGGSLRLSCAASGRTFTPNAMGWYRPPPGKVREMVAAIDWRGGRTYYADSVKGRFTISRDNAKNTVYLQKNSLKPEDTAVYYCAARVDGYQYKSAGYSYGVFYWGQGTQVTVSS”, the “polyreactivity (PSR sort gate)” value was “low polyreactivity”.

Regarding “QVQHVESGGGLVQAGGSLRLSCAASGRTLYNYAMGWYRQAPGKEWELVAAISGSGGSTYYADSVKGRFTISRDNAKNTVYLQMNSLKPEDTEVYFCAKYRGIYPDVRGTYYWGQGTQVTVSS”, the “polyreactivity (PSR sort gate)” value is given as “high polyreactivity”.

As for “QVQHVESGGGLVQAGGSLRLSCAASGRTYVNYVMGWYRQAPGKEREFVAAISRNGGSTYYADSVKGRFSISRDNAKYTFYLQMNSLKPEDTAVYYCAARPRRRYYGSDSWGQGTQVTVSS”, the “polyreactivity (PSR sort gate)” value is reported as “high polyreactivity”.

On to “QVQHVESGGGLVQAGGSLRLSCAASGSIFDRNAMGRYRQAPGKERELVAAISGGDSTYYADSVKGRFTISRDNAKNTVYLQMNSLKPEDTAVYYCNVDFKTEYDYWGQGTQVTVSS”, for which the “polyreactivity (PSR sort gate)” value was “low polyreactivity”.
